Measured values taken from publication PMC3020944, “Structure-Activity Relationship of Cinnamaldehyde Analogs as Inhibitors of AI-2 Based Quorum Sensing and Their Effect on Virulence of Vibrio spp”.

Target: T1, GST-LuxR (Vibrio harveyi, UniProt P21308 1-205)
T1 sequence: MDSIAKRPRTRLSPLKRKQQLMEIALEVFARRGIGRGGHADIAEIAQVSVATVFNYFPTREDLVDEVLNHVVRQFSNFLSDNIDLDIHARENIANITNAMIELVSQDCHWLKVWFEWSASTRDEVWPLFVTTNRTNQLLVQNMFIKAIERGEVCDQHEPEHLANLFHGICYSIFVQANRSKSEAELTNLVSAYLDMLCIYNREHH
Assay: fluorescence anisotropy; no inhibitor; Kd value only in Fig. 2B; 30°C; fluorescence polarisation, excitation 480 nm, emission 535 nm; binding buffer, salt and pH not given (as in ref 12); duplex annealed in NaCl-Tris-EDTA
Conditions: protein: recombinant; tags: GST; chain copies: 2; label: 5' fluorescein on strand 1; blunt

B1: V. harveyi consensus LuxR binding sequence (dsDNA)
DNA 1: TATTGATAAATTTATCAATAA
DNA 2: TTATTGATAAATTTATCAATA
- binding result: binds
